From US20060257938A1, “Method of screening for drugs that block ligand binding to a lipid binding protein” (priority 2005, published 2006)
Numbering of substitutions follows the chain as printed. Where “and” joins values, the source holds several entries; their conditions need not be identical. Equal values may be shown once.

B1: 72M (protein, listed as Rattus norvegicus)
chain: AFDGTWKVDRNENYEKFMEKMGINVVKRKLGAHDNLKLTITQEGNKFTVKESSNFRNIDVVFELGVDFAYSMADGTELTGTWTMEGNKLVGKFKRVDNGKELIAVREISGNELIQTYTYEGVEAKRIFKKE
modifications: PEPTIDE (1)...(131) wild-type rat intestinal fatty acid binding protein
B2: 104F3, 72A (protein, listed as Rattus norvegicus)
chain: B1 chain with M72A, A104F
modifications: PEPTIDE (1)...(131) wild-type rat intestinal fatty acid binding protein
B3: 73P, 72A (protein, listed as Rattus norvegicus)
chain: B1 chain with M72A, A73P
modifications: PEPTIDE (1)...(131) wild-type rat intestinal fatty acid binding protein
B4: 73Q, 72A (protein, listed as Rattus norvegicus)
chain: B1 chain with M72A, A73Q
modifications: PEPTIDE (1)...(131) wild-type rat intestinal fatty acid binding protein
B5: 104F1, 72A (protein, listed as Rattus norvegicus)
chain: B1 chain with M72A, A104F
modifications: PEPTIDE (1)...(131) wild-type rat intestinal fatty acid binding protein
B6: 72R (protein, listed as Rattus norvegicus)
chain: B1 chain with M72R
modifications: PEPTIDE (1)...(131) wild-type rat intestinal fatty acid binding protein
B7: 73V, 72A (protein, listed as Rattus norvegicus)
chain: B1 chain with M72A, A73V
modifications: PEPTIDE (1)...(131) wild-type rat intestinal fatty acid binding protein
B8: 73F, 72A (protein, listed as Rattus norvegicus)
chain: B1 chain with M72A, A73F
modifications: PEPTIDE (1)...(131) wild-type rat intestinal fatty acid binding protein
B9: 73S, 72A (protein, listed as Rattus norvegicus)
chain: B1 chain with M72A, A73S
modifications: PEPTIDE (1)...(131) wild-type rat intestinal fatty acid binding protein
B10: 72S (protein, listed as Rattus norvegicus)
chain: B1 chain with M72S
modifications: PEPTIDE (1)...(131) wild-type rat intestinal fatty acid binding protein
B11: 73K, 72A (protein, listed as Rattus norvegicus)
chain: B1 chain with M72A, A73K
modifications: PEPTIDE (1)...(131) wild-type rat intestinal fatty acid binding protein
B12: 73N, 72A (protein, listed as Rattus norvegicus)
chain: B1 chain with M72A, A73N
modifications: PEPTIDE (1)...(131) wild-type rat intestinal fatty acid binding protein
B13: 73W, 72A (protein, listed as Rattus norvegicus)
chain: B1 chain with M72A, A73W
modifications: PEPTIDE (1)...(131) wild-type rat intestinal fatty acid binding protein
B14: 73G, 72A (protein, listed as Rattus norvegicus)
chain: B1 chain with M72A, A73G
modifications: PEPTIDE (1)...(131) wild-type rat intestinal fatty acid binding protein
B15: 72Y (protein, listed as Rattus norvegicus)
chain: B1 chain with M72Y
modifications: PEPTIDE (1)...(131) wild-type rat intestinal fatty acid binding protein
B16: 72V (protein, listed as Rattus norvegicus)
chain: B1 chain with M72V
modifications: PEPTIDE (1)...(131) wild-type rat intestinal fatty acid binding protein
B17: 73T, 72A (protein, listed as Rattus norvegicus)
chain: B1 chain with M72A, A73T
modifications: PEPTIDE (1)...(131) wild-type rat intestinal fatty acid binding protein
B18: 73R, 72A (protein, listed as Rattus norvegicus)
chain: B1 chain with M72A, A73R
modifications: PEPTIDE (1)...(131) wild-type rat intestinal fatty acid binding protein
B19: 72Q (protein, listed as Rattus norvegicus)
chain: B1 chain with M72Q
modifications: PEPTIDE (1)...(131) wild-type rat intestinal fatty acid binding protein
B20: 72N (protein, listed as Rattus norvegicus)
chain: B1 chain with M72N
modifications: PEPTIDE (1)...(131) wild-type rat intestinal fatty acid binding protein
B21: 73E, 72A (protein, listed as Rattus norvegicus)
chain: B1 chain with M72A, A73E
modifications: PEPTIDE (1)...(131) wild-type rat intestinal fatty acid binding protein
B22: 73H, 72A (protein, listed as Rattus norvegicus)
chain: B1 chain with M72A, A73H
modifications: PEPTIDE (1)...(131) wild-type rat intestinal fatty acid binding protein
B23: 73L, 72A (protein, listed as Rattus norvegicus)
chain: B1 chain with M72A, A73L
modifications: PEPTIDE (1)...(131) wild-type rat intestinal fatty acid binding protein

Assay: Probe fluorescence ratio response to linoleic acid relative to ADIFAB2
Type: binding
Settings: response relative to ADIFAB2
In short: (§1)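 Each fatty acid's response was expressed relative to ADIFAB2, the rI-FABP-L72A probe, as ΔR/ΔRreference. ΔR is the change in the background-corrected two-wavelength intensity ratio R=Fλ1/Fλ2 from its analyte-free baseline R0. Emission was read near about 420-480 nm for unbound and about 495-580 nm for FFA-bound probe.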
For B1, the “DR/DR LA” value was 1.46. For B2, the “DR/DR LA” value was 0.50. In the case of B3, the “DR/DR LA” value is reported as 0.30. For B4, the “DR/DR LA” value was 1.39. In the case of B5, the “DR/DR LA” value is reported as 0.47. With B6 the “DR/DR LA” value was 0.51. For B7, the “DR/DR LA” value was 0.40 and 0.396. In the case of B8, the “DR/DR LA” value is reported as 1.23 and 1.234. In the case of B9, the “DR/DR LA” value is reported as 1.05. With B10 the “DR/DR LA” value was 0.73. In the case of B11, the “DR/DR LA” value is reported as 0.29. With B12 the “DR/DR LA” value was 0.43. In the case of B13, the “DR/DR LA” value is reported as 1.89. In the case of B14, the “DR/DR LA” value is reported as 0.56. With B15 the “DR/DR LA” value was 0.64 and 0.637. With B16 the “DR/DR LA” value was 0.21. For B17, the “DR/DR LA” value was 0.77 and 0.768. In the case of B18, the “DR/DR LA” value is reported as 0.36. With B19 the “DR/DR LA” value was 0.76 and 0.762. For B20, the “DR/DR LA” value was 0.77. In the case of B21, the “DR/DR LA” value is reported as 0.19. For B22, the “DR/DR LA” value was 0.18. With B23 the “DR/DR LA” value was 0.33 and 0.325.

Assay: Probe fluorescence ratio response to arachidonic acid relative to ADIFAB2
Type: binding
Settings: Arachidonic acid; response relative to ADIFAB2
In short: as §1
With B1 the “DR/DR AA” value was 1.31. For B3, the “DR/DR AA” value was 0.42. In the case of B4, the “DR/DR AA” value is reported as 1.36. In the case of B6, the “DR/DR AA” value is reported as 0.45. With B7 the “DR/DR AA” value was 0.98. For B8, the “DR/DR AA” value was 1.21. With B9 the “DR/DR AA” value was 1.01. In the case of B10, the “DR/DR AA” value is reported as 0.65. For B11, the “DR/DR AA” value was 0.30. With B12 the “DR/DR AA” value was 0.48. With B13 the “DR/DR AA” value was 1.77. With B14 the “DR/DR AA” value was 0.46. With B15 the “DR/DR AA” value was 0.35. With B16 the “DR/DR AA” value was 0.18. In the case of B17, the “DR/DR AA” value is reported as 0.87. In the case of B18, the “DR/DR AA” value is reported as 0.40. For B19, the “DR/DR AA” value was 0.77. For B20, the “DR/DR AA” value was 0.65. With B21 the “DR/DR AA” value was 0.15. In the case of B22, the “DR/DR AA” value is reported as 0.15. In the case of B23, the “DR/DR AA” value is reported as 0.73.

Same assay, conditions: arachidonic acid; response relative to ADIFAB2
In the case of B2, the “DR/DR AA” value is reported as 0.71. With B5 the “DR/DR AA” value was 0.66. With B7 the “DR/DR AA” value was 0.976. With B8 the “DR/DR AA” value was 1.208. In the case of B15, the “DR/DR AA” value is reported as 0.346. With B17 the “DR/DR AA” value was 0.872. In the case of B19, the “DR/DR AA” value is reported as 0.770. For B20, the “DR/DR AA” value was 0.652. In the case of B23, the “DR/DR AA” value is reported as 0.733.

Assay: Probe fluorescence ratio response to linolenic acid relative to ADIFAB2
Type: binding
Settings: response relative to ADIFAB2
In short: as §1
In the case of B1, the “DR/DR LNA” value is reported as 1.35. For B2, the “DR/DR LNA” value was 0.45. With B3 the “DR/DR LNA” value was 0.41. With B4 the “DR/DR LNA” value was 1.31. For B5, the “DR/DR LNA” value was 0.42. With B6 the “DR/DR LNA” value was 0.49. With B7 the “DR/DR LNA” value was 0.50 and 0.496. For B8, the “DR/DR LNA” value was 1.86 and 1.861. In the case of B9, the “DR/DR LNA” value is reported as 1.08. In the case of B10, the “DR/DR LNA” value is reported as 0.71. For B11, the “DR/DR LNA” value was 0.28. With B12 the “DR/DR LNA” value was 0.47. For B13, the “DR/DR LNA” value was 1.93. With B14 the “DR/DR LNA” value was 0.53. With B15 the “DR/DR LNA” value was 0.59 and 0.594. For B16, the “DR/DR LNA” value was 0.15. With B17 the “DR/DR LNA” value was 0.77 and 0.765. In the case of B18, the “DR/DR LNA” value is reported as 0.33. For B19, the “DR/DR LNA” value was 0.73 and 0.735. For B20, the “DR/DR LNA” value was 0.70 and 0.702. In the case of B21, the “DR/DR LNA” value is reported as 0.14. With B22 the “DR/DR LNA” value was 0.25. In the case of B23, the “DR/DR LNA” value is reported as 0.34 and 0.338.

Assay: Probe fluorescence ratio response to oleic acid relative to ADIFAB2
Type: binding
Settings: response relative to ADIFAB2
In short: as §1
With B1 the “DR/DR OA” value was 1.49. In the case of B2, the “DR/DR OA” value is reported as 0.47. With B3 the “DR/DR OA” value was 0.30. With B4 the “DR/DR OA” value was 1.28. For B5, the “DR/DR OA” value was 0.45. In the case of B6, the “DR/DR OA” value is reported as 0.45. With B7 the “DR/DR OA” value was 0.60 and 0.603. For B8, the “DR/DR OA” value was 0.73 and 0.728. For B9, the “DR/DR OA” value was 0.96. For B10, the “DR/DR OA” value was 0.62. With B11 the “DR/DR OA” value was 0.28. With B12 the “DR/DR OA” value was 0.41. In the case of B13, the “DR/DR OA” value is reported as 1.66. For B14, the “DR/DR OA” value was 0.52. With B15 the “DR/DR OA” value was 0.56 and 0.557. With B16 the “DR/DR OA” value was 0.20. For B17, the “DR/DR OA” value was 0.78 and 0.778. In the case of B18, the “DR/DR OA” value is reported as 0.27. With B19 the “DR/DR OA” value was 0.78 and 0.777. With B20 the “DR/DR OA” value was 0.83 and 0.831. In the case of B21, the “DR/DR OA” value is reported as 0.14. For B22, the “DR/DR OA” value was 0.13. With B23 the “DR/DR OA” value was 0.38.

Assay: Probe fluorescence ratio response to palmitic acid relative to ADIFAB2
Type: binding
Settings: response relative to ADIFAB2
In short: as §1
For B1, the “DR/DR PA” value was 1.32. In the case of B2, the “DR/DR PA” value is reported as 0.25. For B3, the “DR/DR PA” value was 0.26. In the case of B4, the “DR/DR PA” value is reported as 1.19. For B5, the “DR/DR PA” value was 0.27. For B6, the “DR/DR PA” value was 0.26. With B7 the “DR/DR PA” value was 0.48 and 0.475. For B8, the “DR/DR PA” value was 1.13 and 1.128. In the case of B9, the “DR/DR PA” value is reported as 0.99. With B10 the “DR/DR PA” value was 0.68. For B11, the “DR/DR PA” value was 0.15. In the case of B12, the “DR/DR PA” value is reported as 0.39. In the case of B13, the “DR/DR PA” value is reported as 1.05. For B14, the “DR/DR PA” value was 0.41. With B15 the “DR/DR PA” value was 0.41 and 0.415. With B16 the “DR/DR PA” value was 0.16. In the case of B17, the “DR/DR PA” value is reported as 0.62 and 0.621. For B18, the “DR/DR PA” value was 0.20. In the case of B19, the “DR/DR PA” value is reported as 0.99 and 0.989. For B20, the “DR/DR PA” value was 0.44 and 0.441. For B21, the “DR/DR PA” value was 0.13. With B22 the “DR/DR PA” value was 0.16. With B23 the “DR/DR PA” value was 0.25 and 0.251.
